{"source": "patent US6861578B1", "about": "“Method for plant protection against insects or nematodes by transformation with a nucleic acid encoding equistatin” (Plant Research International B.V., priority 1997, dated 2005)", "key": {"[1]": {"biological_target": "T1, papain (Carica papaya, UniProt P00784)", "T1 sequence (P00784 134-345)": "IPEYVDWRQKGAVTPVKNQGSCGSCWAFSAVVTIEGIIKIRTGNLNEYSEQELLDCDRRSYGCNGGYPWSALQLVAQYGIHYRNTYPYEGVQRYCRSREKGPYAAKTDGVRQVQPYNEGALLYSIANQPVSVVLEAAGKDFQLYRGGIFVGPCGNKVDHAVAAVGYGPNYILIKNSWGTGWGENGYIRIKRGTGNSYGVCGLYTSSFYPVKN", "test": "Stoichiometry and inhibition constant of recombinant equistatin with papain (Z-Phe-Arg-pNA, microtiterplate)", "assay_type": "biochemical", "procedure": "In a microtiterplate 20 μl papain solution (a fresh solution of 1 mg/ml (Sigma) in MES buffer titrated with E-64 to determine the active fraction, usually 17%) is combined with 0-80 μl of known protein concentration. MES buffer (50 mM MES, pH 6.5; 0.6 mg/ml L-cysteine; 1 mg/ml BSA fraction V) is added to a final volume of 150 μl. The mixture is incubated for 30 min at room temperature and subsequently 50 μl of substrate solution (60 μl of 15 mg/ml Z-Phe-Arg-pNA dissolved in methanol is diluted in 940 μl MES buffer before use). The plate is immediately placed in the nicrotiterplate reader and measured at 405 nm. Readings up to an OD600 of 0.3 are linear. Rates of change are used to determine the activity with increasing amounts of inhibitor. Results are graphically represented and at stoichiometric concentrations the amount of dissociated complex is determined to determine the apparent equilibrium dissociation constant (Ki). […] The apparent equilibrium dissociation constant for papain was estimated to be 0.6 nM in agreement with the data published for the purified protein (Lenarcic et al. (1997) J. Biol. Chem. 272: 13899-13903."}, "[2]": {"tested_on": "leafminer proteases", "test": "Protease activity of adult leafminer fly extract, FITC-hemoglobin", "assay_type": "biochemical, Liriomyza trifolii", "conditions": "leafminer pH 3.5; equistatin purified from sea anemone", "procedure": "(§1) Adult western flower thrips (Frankliniella occidentalis) and leafmirer flies (Liriomyza trifolii) adult were harvested from a culture maintained on chrysanthemum plants and complete thrips and flies were homogenized in extraction on buffer (200 mM β-alanine-HCl, pH 3.5) in a volume of 5 times the weight of the insects. The buffer pH was at the previously determined pH optimum of protease activity towards hemoglobin. Final instar Colorado potato beetle larvae maintained on potato plants as described in example 5 were checked for gut aspartic protease activity by preparing a total gut extract in pH 3 buffer which is optimal for Colorado potato beetle aspartic proteases (200 mM glycine, pH 3). Guts were homogenized in 100 μl buffer per gut. Third instar western corn rootworm larvae maintained on corn roots were used to remove the guts. Ten guts were homogenized in 100 μl water and spinned twice to remove insoluble material. Two types of buffers were used in the enzymatic assay. One with a pH presumably favoring cysteine proteases (50 mM MES, pH 6.5; 0.6 mg/ml L-cysteine) and one for detecting aspartic proteases (200 mM glycine, pH 3). Supernatants were stored at −20° C.\n(§2) 2 μl gut extract was combined with 2 μl inhibitor (2 mM pepstatin in methanol, 4 mM E64 in water, 2 mg/ml recombinant equistatin in water. The concentration of the other proteinaceous inhibitors was not known exactly). Appropriate buffers were added to a final volume of 100 μl. After 15′ preincubation 20 μl substrate (5 mg/ml FITC-hemoglobin) was added and incubated for 30-45 min at 37 C.\n(§3) Reaction was stopped by the addition of 100 μl 10% TCA. Tubes were centrifuged and 100 μl supernatant mixed with 100 μl 10 N NaOH was measured on a fluorimeter for the extent of hemoglobin hydrolysis. Measurements were done in duplicate on one (thrips, leafminer and western corn rootworm), or three (Colorado potato beetle) different gut extracts and varied by a maximum of +/−5%."}, "[3]": {"tested_on": "Colorado potato beetle larval gut extracts (potato protease inhibitor-insensitive cysteine proteases)", "test": "General proteolytic activity of Colorado potato beetle larval gut extracts, azocasein", "assay_type": "biochemical, Leptinotarsa decemlineata", "source_text": "Guts of final instar Colorado potato beetle larvae reared on methyl jasmonate induced plants were isolated and extracted essentially as described (Bolter and Jongsma, J. Insect Physiol. 41: 1071-1078). In these gut extracts the proteases that are sensitive to the protease inhibitors of potato are already complexed. The residual protease activity is composed of potato protease-inhibitor-insensitive proteases which were induced in response to the methyl jasmonate induced potato inhibitors. These proteases are the proteases that render the beetle larvae insensitive to protease inhibitor defense of the potato plant. Wle tested a broad range of different cysteisie protease inhibitors for activity specifically against these induced potato protease inhibitor-insensitive cysteine protesses. Nearly all of these inhibitors were purified at the Jozef Stefan Institute in Slovenia. Testing their potential against Colorado potato beetle was done using both general protein substrates (azocasein, table 2) as well as specific synthetic substrates (L-Arg-pNA, table 3; pGlu-Phe-Leu-pNA, table 4; Z-Phe-Arg-pNA, table 5; Z-Arg-Arg-pNA, table 6). In specific cases inhibitors were tested at two concentrations, eauimolar and in excess to the protease, in order to obtain an indication of the tightness of the complex. […] Importantly, this class of inhibitors was capable of inhibiting nearly all general cysteine protease activity. The equistatin peptide molecule and a functional derivative thereof were not very active against the aminopeptidase-like cysteine protease activity. […] The best combination of inhibitors for full toxicity against the Colorado potato beetle would therefore be a combination of equistatin or p41 invariant chain fragment and stefin-like inhibitors."}, "[4]": {"tested_on": "western corn rootworm cysteine and aspartic protease activity", "test": "Protease activity of western corn rootworm larval gut extract, FITC-hemoglobin", "assay_type": "biochemical, Diabrotica virgifera", "parameters": "inhibition of protease activity: concentration or dose not given beside the values", "conditions": "for residual protease activity: recombinant equistatin; for inhibition of protease activity: western corn rootworm", "procedure": "as §1, §2, §3"}}, "data": [{"molecule": "equistatin: cysteine/aspartic protease inhibitor from sea anemone Actinia equina with three type I repeated thyroglobulin domains; purified or recombinant from E. coli (protein, left off: large carriers; small tags and cut ends, purified or recombinant from E. coli) SLTKCQQLQASANSGLIGTYVPQCKETGEFEEKQCWGSTGYCWCVDEDGKEILGTKIRGSPDCSRRKAALTLCQMMQAIIVNVPGWCGPPSCKADGSFDEVQCCASNGECYCVDKKGKELEGTRQQGRPTCERHLSECEEARIKAHSNSLRVEMFVPECLEDGSYNPVQCWPSTGYCWCVDEGGVKVPGSDVRFKRPTC", "values": [{"measurement": "molecules of papain inhibited by one molecule of equistatin", "setting": "[1]", "value": "approximately 1 molecule"}, {"measurement": "residual protease activity", "setting": "[2]", "value": 24, "unit": "%"}, {"measurement": "Residual activity in excess of inhibitor", "setting": "[3]", "value": 10, "unit": "%"}, {"measurement": "residual protease activity", "setting": "[4]; western corn rootworm pH 3", "value": 2, "unit": "%"}, {"measurement": "residual protease activity", "setting": "[4]; western corn rootworm pH 6.5", "value": 7, "unit": "%"}, {"measurement": "inhibition of protease activity", "setting": "[4]; pH 3", "value": 98, "unit": "%"}, {"measurement": "inhibition of protease activity", "setting": "[4]; pH 6.5", "value": 93, "unit": "%"}]}]}
